By stoichiometry N is commonly meant the number of molecules, sites or subunits per partner or assembly.

The assay has as its target recombinant triosephosphate isomerase from Fusarium oxysporum (FoxTPI) (Fusarium oxysporum). Kind of assay: SEC; gel filtration on Sephacryl 100 (16/60), 50 mM Tris pH 8.0, 0.5 mL/min; calibrated with Bio-Rad gel filtration standard; single peak at 47 mL, relative MW 56 kDa. In general terms: Size exclusion chromatography separates by hydrodynamic size, large species first.

Take “recombinant triosephosphate isomerase from Fusarium oxysporum (FoxTPI) (enzyme)”: the stoichiometry N amounted to 2.

(Values after article PMC7022633, “Gene Cloning, Recombinant Expression, Characterization, and Molecular Modeling of the Glycolytic Enzyme Triosephosphate Isomerase from Fusarium oxysporum” (Microorganisms, 2019).)
